# According to patent US20210155689A1 (SHANGHAI PHARMAEXPLORER, published 2021):
# T1: human LAG-3 on cells (HEK293-hLAG-3 stable cell line) (human, UniProt P18627 23-525)
# T1 sequence: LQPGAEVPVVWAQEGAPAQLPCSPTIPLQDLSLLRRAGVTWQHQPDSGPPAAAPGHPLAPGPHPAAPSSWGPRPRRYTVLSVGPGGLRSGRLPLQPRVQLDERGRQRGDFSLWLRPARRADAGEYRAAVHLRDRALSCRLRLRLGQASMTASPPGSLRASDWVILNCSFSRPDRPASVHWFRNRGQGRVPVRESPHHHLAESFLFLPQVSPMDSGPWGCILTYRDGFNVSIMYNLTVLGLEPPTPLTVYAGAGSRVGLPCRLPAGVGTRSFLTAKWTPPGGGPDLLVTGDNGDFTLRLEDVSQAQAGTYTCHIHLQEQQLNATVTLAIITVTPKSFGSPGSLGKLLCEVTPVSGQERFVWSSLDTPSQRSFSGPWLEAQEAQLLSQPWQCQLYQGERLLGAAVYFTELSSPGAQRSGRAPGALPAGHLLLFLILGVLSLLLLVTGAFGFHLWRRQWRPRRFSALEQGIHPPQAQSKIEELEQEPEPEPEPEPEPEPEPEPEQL
# T2: human LAG-3 ECD (antigen protein of the affinity test) (human, UniProt P18627 23-450)
# T2 sequence: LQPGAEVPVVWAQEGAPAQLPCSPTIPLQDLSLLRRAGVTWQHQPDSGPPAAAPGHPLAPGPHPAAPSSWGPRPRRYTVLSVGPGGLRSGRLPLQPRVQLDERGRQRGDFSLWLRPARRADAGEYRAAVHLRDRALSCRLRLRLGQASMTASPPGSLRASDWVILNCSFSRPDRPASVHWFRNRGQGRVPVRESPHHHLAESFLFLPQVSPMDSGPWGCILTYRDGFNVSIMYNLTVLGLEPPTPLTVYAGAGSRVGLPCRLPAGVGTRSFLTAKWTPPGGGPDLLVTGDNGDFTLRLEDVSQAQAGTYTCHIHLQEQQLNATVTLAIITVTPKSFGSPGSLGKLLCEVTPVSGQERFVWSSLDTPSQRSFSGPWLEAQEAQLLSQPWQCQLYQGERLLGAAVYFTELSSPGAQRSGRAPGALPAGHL
# T3: human LAG-3 ECD (antigen protein of the affinity test) (human, UniProt P18627 23-450)
# T3 sequence: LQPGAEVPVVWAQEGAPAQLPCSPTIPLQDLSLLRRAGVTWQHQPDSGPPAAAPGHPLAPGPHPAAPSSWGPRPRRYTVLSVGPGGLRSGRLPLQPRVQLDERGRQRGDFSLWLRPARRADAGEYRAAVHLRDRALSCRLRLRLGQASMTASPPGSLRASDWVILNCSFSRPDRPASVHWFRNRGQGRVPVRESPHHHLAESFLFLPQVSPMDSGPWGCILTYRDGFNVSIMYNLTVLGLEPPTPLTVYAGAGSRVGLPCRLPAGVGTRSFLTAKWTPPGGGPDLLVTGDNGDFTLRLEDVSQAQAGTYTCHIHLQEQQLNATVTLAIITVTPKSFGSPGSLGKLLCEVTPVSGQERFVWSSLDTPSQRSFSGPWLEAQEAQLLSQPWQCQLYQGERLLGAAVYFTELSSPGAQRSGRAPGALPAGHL
# Tests used:
# [1] = biological target: T1, human LAG-3 on cells (HEK293-hLAG-3 …); assay: FACS, HEK293-hLAG-3, antibody 0 nM
# [2] = biological target: T1, human LAG-3 on cells (HEK293-hLAG-3 …); assay: FACS, HEK293-hLAG-3, antibody 8 nM
# [3] = biological target: T1, human LAG-3 on cells (HEK293-hLAG-3 …); assay: FACS, HEK293-hLAG-3, antibody 1.6 nM
# [4] = biological target: T1, human LAG-3 on cells (HEK293-hLAG-3 …); assay: FACS, HEK293-hLAG-3, antibody 0.013 nM
# [5] = biological target: T1, human LAG-3 on cells (HEK293-hLAG-3 …); assay: FACS, HEK293-hLAG-3, antibody 40 nM
# [6] = biological target: T1, human LAG-3 on cells (HEK293-hLAG-3 …); assay: FACS, HEK293-hLAG-3, antibody 0.064 nM
# [7] = biological target: T1, human LAG-3 on cells (HEK293-hLAG-3 …); assay: FACS, HEK293-hLAG-3, antibody 0.32 nM
# [8] = biological target: T2, human LAG-3 ECD (antigen protein of the …); assay: SPR, CM5 chip, antibody captured by anti-human Fc IgG, antigen in flow, 1:1 fit
# Experimental: (§1) First, anti-human Fc IgG was immobilized on the surface of the CM5 chip to 6000-10000 RU by amino coupling method, with FC1 as the reference channel. The coupling process was as follows: a freshly prepared 1:1 mixture of 50 mM NHS and 200 mM EDC was activated for 7 minutes, then injected with 10-50 ug/ml anti-human Fc IgG diluted in 10 mM sodium acetate ph5.0 buffer. The remaining activated sites were blocked with 1M ethanolamine. Then, HBS-EP+ buffer was used to dilute the antibody to be tested to 5 ug/ml (adjustable according to the capture level) and the antibodies were captured on the chip at a flow rate of 10 ul/min to obtain a response value of about 100˜300 RU. Then the antigen protein was diluted to 100 nM (the highest concentration was tentatively 100 nM), and flew through the chip surface at a flow rate of 30 ul/min. If enough signal value was obtained, the antigen-protein was diluted by several concentration gradients, and flew through the chip surface respectively. At the end of each cycle, the chip surface was regenerated with 10 mM Glycine at pH 1.5. The kinetic rate constant needed to be subtracted from the blank control, and the data was fitted with the global fit analysis method 1:1 combination model. The dissociation equilibrium rate constant (KD) was calculated according to the following formula: KD=kd/ka.
# [9] = biological target: T3, human LAG-3 ECD (antigen protein of the …); assay: SPR (CM5 chip), antibody captured by anti-human Fc IgG, antigen protein in flow, 1:1 model
# Experimental: as §1
# The method was the same as that in Example 5.
binder,measurement,setting,value
"556F6B8-8 humanized antibody (antibody, V domains shown) VH: RVQLQESGPGLVKPSETLSLTCTVSGFSLIKYGVHWIRQPPGKGLEWIGVIWRGGITDYNAAFMSRVTISKDTSKSQVSLKLSSVTAADTAVYYCAKWDGPLAMDYWGQGTTVTVSS VL: DIVLTQSPSFLSASVGDRVTITCKASQDVGTTVAWYQQKPGKAPKLLIYWASTRHTGVPSRFSGSGSGTEFTLTISSLQPEDFATYYCQQYSSYPYTFGQGTKLEIK",Mean fluorescence intensity,[1],4
same,Mean fluorescence intensity,[2],79
same,Mean fluorescence intensity,[3],64
same,Mean fluorescence intensity,[4],8
same,Mean fluorescence intensity,[5],83
same,Mean fluorescence intensity,[6],15
same,Mean fluorescence intensity,[7],36
"556F6B8-3 humanized antibody (antibody, V domains shown) VH: QVQLQESGPGLVKPSETLSLTCTVSGFSLIKYGVHWIRQPPGKGLEWIGVIWRGGITDYNAAFMSRVTISKDTSKSQVSLKLSSVTAADTAVYYCARWDGPLAMDYWGQGTTVTVSS VL: DIQLTQSPSFLSASVGDRVTITCKASQDVGTTVAWYQQKPGKAPKLLIYWASTRHTGVPSRFSGSGSGTEFTLTISSLQPEDFATYYCQQYSSYPYTFGQGTKLEIK",Mean fluorescence intensity,[1],4
same,Mean fluorescence intensity,[2],94
same,Mean fluorescence intensity,[3],83
same,Mean fluorescence intensity,[4],10
same,Mean fluorescence intensity,[5],98
same,Mean fluorescence intensity,[6],21
same,Kd,[8],3.31 nM
same,koff,[8],0.000465 s⁻¹
same,kon,[8],141000 M⁻¹ s⁻¹
same,Mean fluorescence intensity,[7],49
"556F6B8-7 humanized antibody (antibody, V domains shown) VH: QVQLQESGPGLVKPSETLSLTCTVSGFSLIKYGVHWIRQPPGKGLEWIGVIWRGGITDYNAAFMSRVTISKDTSKSQVSLKLSSVTAADTAVYYCARWDGPLAMDYWGQGTTVTVSS VL: DIVLTQSPSFLSASVGDRVTITCKASQDVGTTVAWYQQKPGKAPKLLIYWASTRHTGVPSRFSGSGSGTEFTLTISSLQPEDFATYYCQQYSSYPYTFGQGTKLEIK",Mean fluorescence intensity,[1],4
same,Mean fluorescence intensity,[2],93
same,Mean fluorescence intensity,[3],79
same,Mean fluorescence intensity,[4],8
same,Mean fluorescence intensity,[5],98
same,Mean fluorescence intensity,[6],18
same,Kd,[8],3.25 nM
same,koff,[8],0.000453 s⁻¹
same,kon,[8],139000 M⁻¹ s⁻¹
same,Mean fluorescence intensity,[7],44
"556F6B8-10 humanized antibody (antibody, V domains shown) VH: QVQLQESGPGLVKPSETLSLTCTVSGFSIIKYGVHWIRQPPGKGLEWIGVIWRGGITDYNAAFMSRVTISVDTSKNQFSLKLSSVTAADTAVYYCARWDGPLAMDYWGQGTTVTVSS VL: DIVLTQSPSFLSASVGDRVTITCKASQDVGTTVAWYQQKPGKSPKLLIYWASTRHTGVPSRFSGSGSGTEFTLTISSLQPEDFATYYCQQYSSYPYTFGQGTKLEIK",Mean fluorescence intensity,[1],4
same,Mean fluorescence intensity,[2],44
same,Mean fluorescence intensity,[3],27
same,Mean fluorescence intensity,[4],4
same,Mean fluorescence intensity,[5],54
same,Mean fluorescence intensity,[6],6
same,Mean fluorescence intensity,[7],11
"556F6B8-12 humanized antibody (antibody, V domains shown) VH: RVQLQESGPGLVKPSETLSLTCTVSGFSLIKYGVHWIRQPPGKGLEWIGVIWRGGITDYNAAFMSRVTISKDTSKSQVSLKLSSVTAADTAVYYCAKWDGPLAMDYWGQGTTVTVSS VL: DIVLTQSPSFLSASVGDRVTITCKASQDVGTTVAWYQQKPGKSPKLLIYWASTRHTGVPSRFSGSGSGTEFTLTISSLQPEDFATYYCQQYSSYPYTFGQGTKLEIK",Mean fluorescence intensity,[1],4
same,Mean fluorescence intensity,[2],83
same,Mean fluorescence intensity,[3],70
same,Mean fluorescence intensity,[4],8
same,Mean fluorescence intensity,[5],87
same,Mean fluorescence intensity,[6],15
same,Mean fluorescence intensity,[7],36
"556F6B8-9 humanized antibody (antibody, V domains shown) VH: QVQLQESGPGLVKPSETLSLTCTVSGGSISKYGVHWIRQPPGKGLEWIGVIWRGGITDYNAAFMSRVTISVDTSKNQFSLKLSSVTAADTAVYYCARWDGPLAMDYWGQGTTVTVSS VL: DIVLTQSPSFLSASVGDRVTITCKASQDVGTTVAWYQQKPGKSPKLLIYWASTRHTGVPSRFSGSGSGTEFTLTISSLQPEDFATYYCQQYSSYPYTFGQGTKLEIK",Mean fluorescence intensity,[1],4
same,Mean fluorescence intensity,[2],18
same,Mean fluorescence intensity,[3],9
same,Mean fluorescence intensity,[4],4
same,Mean fluorescence intensity,[5],33
same,Mean fluorescence intensity,[6],4
same,Mean fluorescence intensity,[7],5
"556F6B8-11 humanized antibody (antibody, V domains shown) VH: QVQLQESGPGLVKPSETLSLTCTVSGFSLIKYGVHWIRQPPGKGLEWIGVIWRGGITDYNAAFMSRVTISKDTSKSQVSLKLSSVTAADTAVYYCARWDGPLAMDYWGQGTTVTVSS VL: DIVLTQSPSFLSASVGDRVTITCKASQDVGTTVAWYQQKPGKSPKLLIYWASTRHTGVPSRFSGSGSGTEFTLTISSLQPEDFATYYCQQYSSYPYTFGQGTKLEIK",Mean fluorescence intensity,[1],4
same,Mean fluorescence intensity,[2],97
same,Mean fluorescence intensity,[3],87
same,Mean fluorescence intensity,[4],9
same,Mean fluorescence intensity,[5],100
same,Mean fluorescence intensity,[6],20
same,Mean fluorescence intensity,[7],51
"405B8H3-1 (D→E) hot-spot mutated humanized antibody (antibody, V domains shown) VH: QVQLVQSGAEVKKPGASVKVSCKASGYTFTDYEMHWVRQAPGQGLEWMGATDPETGNSAYNQKFKGRVTMTRDTSTSTVYMELSSLRSEDTAVYYCISTGWNDWGQGTTVTVSS VL: DIQMTQSPSSLSASVGDRVTITCKASQDINSYLSWFQQKPGKAPKSLIYRADRLLEGVPSRFSGSGSGTDFTLTISSLQPEDFATYYCLQYDEFPYTFGQGTKLEIK",Kd,[9],2.03 nM
same,koff,[9],0.000158 s⁻¹
same,kon,[9],77500 M⁻¹ s⁻¹
"556F6B8 mouse-human chimeric antibody (antibody, V domains shown, also called mAb123-556F6B8) VH: RVQLKQSGPGLVQPSQSLSITCTVSGFSLIKYGVHWVRQSPGEGLEWLGVIWRGGITDYNAAFMSRLSITKDNSKSQVFFKMNSLQADDTAIYYCAKWDGPLAMDYWGQGTSVTVSS VL: DIVMTQSHKFLSTSVGDRVSITCKASQDVGTTVAWYQQKPGQSPKLLIYWASTRHTGVPDRFTGSGSGTDFTLTISNVQSEDLADYFCQQYSSYPYTFGGGTKLEIK",Kd,[9],2.68 nM
same,koff,[9],0.000433 s⁻¹
same,kon,[9],162000 M⁻¹ s⁻¹
"405B8H3 mouse-human chimeric antibody (antibody, V domains shown, also called mAb103-405B8H3) VH: QVQLQQSGAELVRPGASVTLSCKASGYTFTDYEMHWVKQTPVHGLEWIGATDPETGNSAYNQKFKGKAIMTADKSSSTAYMELRSLTSEDSAVYYCISTGWNDWGQGTSLTVSS VL: DIKMTQSPSSMYASLGERVTITCKASQDINSYLSWFQQKPGKSPKTLIYRADRLLDGVPSRFSGSGSGQDYSLTISSLEYGDMGIYYCLQYDEFPYTFGGGTKLEIK",Kd,[9],3.11 nM
same,koff,[9],0.000164 s⁻¹
same,kon,[9],52800 M⁻¹ s⁻¹
